From a protein production outcome set (Wang et al. 2014)

Experiment: label from the status in PepcDB records

| Sequence | protein production |
| --- | --- |
| MKDKRTPMNAFRPKAQTALVVALSLFMAACSNNPLMRTSAATSSDVADEIDRTLEQAEQSQRAASNVSAVPAPSAADISSQLLPPLSSSPQQDERFDVNASEVPASSFFEALVAGTRYNVVVRPDVATTVSLRLSDVTVPEVMDIAADLYGLDITRSGRLYRVAADQVQTRLFPIDYLHFKRRGGSETRVSSGQVSSSRSNREGAGSNDNNEDNETRNLVGTTISTQTESDFWRDIRDALNMIVGGDNGQVVVNPGAGLVMVRAGADDLRLVENYLRKTELIMQRQVVLEAKILEVGLNEGYQQGIDWNDVQSSAGRADYFTSQSLGGQQIRTPDIGGLFSATVSAGDFTGLIELLGQQGNVQILSSPRISTVNNQKAVIKVGTDEFFVTDIDFDDNNSAVTATDSTSTSVELTPFFSGISLDVTPQIAEDGAITLHVHPSVSEVADQEKVITIGERDVTLPLARSTVRETDSVIRAESGQIVVIGGLIQNSSEDNNSAVPFFSEIPLLGELFKQRNFESRKSELVILLRPVVANAGQMQADVSASRERMNVLRELLNSSESVKPQPETAPR | failed |
| LKVMLRPILPEDEPKHLAFDNSLSDEDRYKRYFGVRSKMTHEEMAVLTQIDYAREMAFIATAKGPDGDDITLGAVRASIDPDNTEAEFAMAVRGDHQGIGLGKLLLEKLIKYYQANDTPVLTGFTMFENRNMASLAKNLGFKVTFDME | failed |
| MTRPYSLTRYAWLSIFVAIFTMAVKAAAYRVTGSVGLLSDALESIVNLSAAVVALAMLRLSAQPADARHHFGHGKAEYFASGFEGVLILVAAGAILFAAWDRYLHPHELAELDLGLGLSVAAAVVNGLVGWLLVSVGRKAGSIVLEADGKHLLTDVWTSIGVVCGVAAAGLTGWHDFDPGVAALVGLNIVWTGAGLIRRTIAGLLDASLPLEENLKIRGILETFRERGVGFHDLRTRQSGAHRFMSVHLLVPGAWTVQAAHDLAEEIEAELGGALANLTVVTHIEPIEDPASFGHHEPFPETAPEVTNPHPPQTARPLRLKIASVAGAALLLGGGVAGVVVSGVWLDLALAAVLFGFVLILAVQRRGGRQRKAGRQ | failed |
| MTVELLNEPLSRYPAFDTADPEELRQALSSVYGAKLVEGPIAADFHARSNFVQLDDIALAFGVGTGSIAVEFPEGECARLQIALSGQFTTRSGGTSTAINARQAGIISPGRNARTEYGQNYSFTLLRVSTSALERKLTTLLGCKPKASLEFEPAANNEAPQVVNLRRMLCFLANQLNCSPLPPVVLAELQEAITLLFLSAFRHNYSRQLERESHGIAPKHVRQVEEYIEANWMRPITIEKLTALTGISSRGIFKAFQRSRGYSPMAFAKRVRLQHAHNLLSDGATPTTVTAAALSCGFSNLGHFARDYRDMFGEKPSETLQRARP | failed |
| MDDKAFTKELDQWVEQLNECKQLNENQVRTLCEKAKEILTKESNVQEVRCPVTVCGDVHGQFHDLMELFRIGGKSPDTNYLFMGDYVDRGYYSVETVTLLVALKVRYPERITILRGNHESRQITQVYGFYDECLRKYGNANVWKYFTDLFDYLPLTALVDGQIFCLHGGLSPSIDTLDHIRALDRLQEVPHEGPMCDLLWSDPDDRGGWGISPRGAGYTFGQDISETFNHANGLTLVSRAHQLVMEGYNWCHDRNVVTIFSAPNYCYRCGNQAAIMELDDTLKYSFLQFDPAPRRGEPHVTRRTPDYFL | failed |
| MNKALKALGVLTTFVMLIVLIGGALVTKTGSGQGCGRQWPLCHGRFFPELNPASIIEWSHRFASGISIILVLSLAFWSWRKITPIFRETTFLAIMSIIFLFLQALLGALAVVFGSNALIMALHFGISLISFASVLILTLLIFEADKSVRTLVKPLQIGKKMQFHMIGILIYSYIVVYTGAYVRHTESSLACPNVPLCSPLNNGLPTQFHEWVQMGHRAAALLLFVWIIVAAVHAITSYKDQKQIFWGWISCLIFITLQALSGIMIVYSELALGFALAHSFFIACLFGVLCYFLLLIARFRYESRQS | failed |
| MDIHQELKELSKFLSEYSTSLMAVGVQTSRIVRNTSRIAESFGFFCDMTIFQKTIIMTLRDADNSHSYSTVNKIKPMGLNFAINSALSTLSWEAYDEHLSLSELQRRYHEIVSKPRESKWLVLILVAFANASFCRLFQGDFISMGIVFVATLAGFFVRTELMGRHWNHLAIFIISSFIASMIGSTGYLMHWGDTPDMALGTSVLYLIPGVPLINAIMDIIDGHVLAGTSRFINACLLIICIAIGLSMTLLITGISTL | failed |
